The values below come from US20250042957A1 (Molecular Partners, published 2025).

Assay [1] deals with T1, CD3-specific binding domain (SEQ ID NO: 3) (biotinylated when used as immobilized SPR ligand (site not stated)).
T1 construct: also called α-CD3 DARPin
T1 chain: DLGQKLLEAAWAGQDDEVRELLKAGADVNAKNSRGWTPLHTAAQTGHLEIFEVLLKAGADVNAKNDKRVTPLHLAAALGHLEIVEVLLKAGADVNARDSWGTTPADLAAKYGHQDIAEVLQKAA
Kind of assay: SPR (ProteOn), biotinylated CD3-specific binding domain immobilized, multi-trace 50-0.195 nM, 25 C.

A further assay addresses T2, VEGF165 (UniProt P15692-4 27-191, biotinylated in the ELISA of Example 4 (site not stated)).
T2 construct: also called biotinylated VEGF165; soluble VEGF
Put plainly: SPR (ProteOn), VEGF165 immobilized, multi-trace.

Assay [2] concerns the target T3, 2-in-1 DARPin 22 (SEQ ID NO: 91).
T3 chain: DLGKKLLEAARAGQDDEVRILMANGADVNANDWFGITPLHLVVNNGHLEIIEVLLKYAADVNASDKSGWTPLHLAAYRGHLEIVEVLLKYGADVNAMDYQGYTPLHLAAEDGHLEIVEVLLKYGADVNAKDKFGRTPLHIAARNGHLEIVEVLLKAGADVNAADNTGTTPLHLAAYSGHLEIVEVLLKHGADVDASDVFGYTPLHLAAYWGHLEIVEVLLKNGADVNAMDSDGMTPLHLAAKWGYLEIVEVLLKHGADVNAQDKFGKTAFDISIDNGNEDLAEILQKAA

For assay [3], the target named is T4, 2-in-1 DARPin 21 (SEQ ID NO: 90).
T4 chain: T3 chain with R135K, N144A

Changes are numbered by the printed parent chain.

B1: α-CD3 DARPin-blocker (SEQ ID NO: 2) (designed binder)
chain: DLGKKLLQAARAGQLDEVRELLKAGADVNAKDAKGLTPLHLAAYHGHLEIVEVLLKAGADVNAKDVYGWTPLHIAAASGHLEIVEVLLKAGADVNAKDWLGWTPLHLAASHGHLEIVEVLLKAGADVNAQDKSGKTPADLAARAGHQDIAEVLQKAA
As a reminder, the Kd is the constant that tells how readily two partners part at equilibrium. A lower Kd goes with tighter binding. The koff is the first-order rate constant of dissociation. A low value points to slow dissociation. As usually defined, the kon is a measure of how fast the partners come together. Low readings indicate slow association, high ones fast association. In assay [1], B1 gave a Kd of 0.11 nM, a koff of 8.92e-05 s⁻¹ and a kon of 826000 M⁻¹ s⁻¹. In addition, the binding result with VEGF165 is recorded as “no binding (tested: 50 nM (highest concentration run))”.

B2: Aminoglycoside phosphotransferase (APH) (enzyme)
chain: MRGSHHHHHHGSAKMRISPELKKLIEKYRSVKDTEGMSPAKVYKLVGENENLYLKMTDSRYKGTTYDVEREKDMMLWLEGKLPVPKVLHFERHDGWSNLLMSEADGVLCSEEYEDEQSPEKIIELYAECIRLFHSIDISDCPYTNSLDSRLAELDYLLNNDLADVDSENWEEDTPFKDPRELYDFLKTEKPEEELVFSHGDLGDSNIFVKDGKVSGFIDLGRSGRADKWYDIAFCVRSIREDIGEEQYVELFFDLLGIKPDWEKIKYYILLDELF
As a reminder, the IC50 is the point on the concentration scale where inhibition reaches its midpoint. As to B2, the IC50 in assay [2] turned out to be 47 nM; in assay [3], 55 nM.
